{"source": "patent US20090149389A1", "about": "(PURDUE RESEARCH FOUNDATION, published 2009)", "experiment_in_all_cases": "cell-based or functional assay", "key": {"PKA (h) [1]": {"molecular_target": "T1, PKA (h) (human (h), UniProt P17612 1-351)"}, "Syk (h)": {"molecular_target": "Syk (h) (human (h), UniProt P43405 1-635)"}, "Aurora-A (h)": {"molecular_target": "T2, Aurora-A (h) (human (h), UniProt O14965 1-403)", "T2 sequence (looked up)": "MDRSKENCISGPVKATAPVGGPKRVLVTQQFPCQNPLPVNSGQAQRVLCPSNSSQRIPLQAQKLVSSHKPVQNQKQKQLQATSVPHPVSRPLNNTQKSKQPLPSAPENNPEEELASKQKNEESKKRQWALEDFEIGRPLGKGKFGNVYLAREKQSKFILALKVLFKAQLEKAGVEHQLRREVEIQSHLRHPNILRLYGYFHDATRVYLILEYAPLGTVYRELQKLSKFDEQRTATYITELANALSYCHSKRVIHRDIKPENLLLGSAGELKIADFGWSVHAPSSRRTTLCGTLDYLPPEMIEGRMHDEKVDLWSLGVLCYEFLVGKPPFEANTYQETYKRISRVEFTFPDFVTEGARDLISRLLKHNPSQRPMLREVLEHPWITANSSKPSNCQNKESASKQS"}, "MLCK (h)": {"molecular_target": "MLCK (h) (human (h))"}, "CKIB (h)": {"molecular_target": "CKIB (h) (human (h))"}, "Src(1-530) (h)": {"molecular_target": "Src(1-530) (h) (human (h), UniProt P12931 1-530)"}, "ROCK-1 (h)": {"molecular_target": "ROCK-1 (h) (human (h), UniProt Q13464 17-535, limits assumed)", "sequence (Q13464 17-535 limits assumed)": "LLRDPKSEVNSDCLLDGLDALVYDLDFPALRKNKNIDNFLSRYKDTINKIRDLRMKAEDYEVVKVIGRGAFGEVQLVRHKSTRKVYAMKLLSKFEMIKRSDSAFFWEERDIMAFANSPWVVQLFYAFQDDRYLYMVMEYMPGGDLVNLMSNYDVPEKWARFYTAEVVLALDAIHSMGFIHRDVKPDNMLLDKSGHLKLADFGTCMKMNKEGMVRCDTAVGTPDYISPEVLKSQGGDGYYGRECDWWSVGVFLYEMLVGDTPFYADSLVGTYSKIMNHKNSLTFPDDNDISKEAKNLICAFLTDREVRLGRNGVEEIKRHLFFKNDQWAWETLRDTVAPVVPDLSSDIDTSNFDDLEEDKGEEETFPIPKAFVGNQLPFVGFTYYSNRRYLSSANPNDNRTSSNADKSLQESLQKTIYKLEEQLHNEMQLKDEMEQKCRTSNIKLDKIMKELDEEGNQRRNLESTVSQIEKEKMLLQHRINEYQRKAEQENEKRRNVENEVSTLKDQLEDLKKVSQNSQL"}, "SAPK2 a (h)": {"molecular_target": "SAPK2 a (h) (human (h), UniProt Q16539 1-360)", "sequence (Q16539 whole entry)": "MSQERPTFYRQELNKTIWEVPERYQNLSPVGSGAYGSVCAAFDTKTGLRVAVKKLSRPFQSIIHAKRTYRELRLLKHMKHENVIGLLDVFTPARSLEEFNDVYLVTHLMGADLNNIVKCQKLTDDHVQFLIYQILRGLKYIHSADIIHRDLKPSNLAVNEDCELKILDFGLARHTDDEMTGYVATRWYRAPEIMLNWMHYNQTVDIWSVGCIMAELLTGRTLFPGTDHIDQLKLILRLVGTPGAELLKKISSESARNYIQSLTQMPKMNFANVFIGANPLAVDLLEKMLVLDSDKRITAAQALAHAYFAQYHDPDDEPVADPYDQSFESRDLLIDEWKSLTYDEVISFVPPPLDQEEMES"}, "PDGFRβ (h)": {"molecular_target": "PDGFRβ (h) (human (h), UniProt P09619 558-1106, limits assumed)", "sequence (P09619 558-1106 limits assumed)": "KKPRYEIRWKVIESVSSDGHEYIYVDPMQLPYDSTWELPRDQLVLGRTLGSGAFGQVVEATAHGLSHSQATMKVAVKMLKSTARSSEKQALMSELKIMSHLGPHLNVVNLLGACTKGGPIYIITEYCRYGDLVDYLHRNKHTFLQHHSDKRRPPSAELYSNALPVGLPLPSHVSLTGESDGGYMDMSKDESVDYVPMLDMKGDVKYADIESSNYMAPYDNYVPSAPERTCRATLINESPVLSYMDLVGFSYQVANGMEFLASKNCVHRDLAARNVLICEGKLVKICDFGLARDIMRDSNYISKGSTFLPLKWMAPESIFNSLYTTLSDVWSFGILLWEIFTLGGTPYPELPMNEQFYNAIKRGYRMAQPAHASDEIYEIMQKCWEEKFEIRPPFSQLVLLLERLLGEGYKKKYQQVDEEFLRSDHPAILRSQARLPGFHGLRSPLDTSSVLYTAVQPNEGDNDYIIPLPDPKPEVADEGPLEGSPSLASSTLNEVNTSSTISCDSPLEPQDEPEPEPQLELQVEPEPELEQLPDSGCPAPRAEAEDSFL"}, "L1MK1 (h)": {"molecular_target": "L1MK1 (h) (human (h), UniProt P53667 285-638, limits assumed)", "sequence (P53667 285-638 limits assumed)": "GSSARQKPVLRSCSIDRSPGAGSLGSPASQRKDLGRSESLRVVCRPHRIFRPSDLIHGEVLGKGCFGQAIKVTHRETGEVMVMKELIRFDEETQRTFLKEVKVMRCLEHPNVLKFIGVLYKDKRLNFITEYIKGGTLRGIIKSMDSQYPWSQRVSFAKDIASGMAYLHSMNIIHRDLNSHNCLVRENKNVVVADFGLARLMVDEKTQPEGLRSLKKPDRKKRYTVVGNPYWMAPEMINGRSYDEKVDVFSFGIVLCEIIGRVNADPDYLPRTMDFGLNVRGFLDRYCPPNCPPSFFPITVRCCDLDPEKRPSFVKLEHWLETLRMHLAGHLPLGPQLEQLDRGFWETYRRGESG"}, "PKG1β (h)": {"molecular_target": "T3, PKG1β (h) (human (h), UniProt Q13976-2 1-686)", "T3 sequence (looked up)": "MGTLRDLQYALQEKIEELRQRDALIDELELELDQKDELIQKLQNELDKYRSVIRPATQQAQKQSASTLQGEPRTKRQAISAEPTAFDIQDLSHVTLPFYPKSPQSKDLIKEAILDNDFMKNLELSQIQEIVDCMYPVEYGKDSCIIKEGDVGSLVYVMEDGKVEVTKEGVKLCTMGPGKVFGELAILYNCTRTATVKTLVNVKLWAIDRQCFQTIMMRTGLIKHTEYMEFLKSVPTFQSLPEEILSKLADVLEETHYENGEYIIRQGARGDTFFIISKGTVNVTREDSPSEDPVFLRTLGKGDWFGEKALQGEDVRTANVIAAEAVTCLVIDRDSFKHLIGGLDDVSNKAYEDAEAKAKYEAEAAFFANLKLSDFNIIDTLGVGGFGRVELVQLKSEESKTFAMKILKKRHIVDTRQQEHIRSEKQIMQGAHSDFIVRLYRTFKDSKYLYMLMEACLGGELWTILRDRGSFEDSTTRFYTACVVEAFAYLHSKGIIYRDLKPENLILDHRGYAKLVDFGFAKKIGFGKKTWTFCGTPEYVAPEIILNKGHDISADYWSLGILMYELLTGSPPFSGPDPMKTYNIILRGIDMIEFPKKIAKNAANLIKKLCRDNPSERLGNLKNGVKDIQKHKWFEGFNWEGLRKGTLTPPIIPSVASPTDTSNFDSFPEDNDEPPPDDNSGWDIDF"}, "MKK4 (m)": {"molecular_target": "T4, MKK4 (m) (mouse (m), UniProt P47809 35-397, limits assumed)", "T4 sequence (looked up)": "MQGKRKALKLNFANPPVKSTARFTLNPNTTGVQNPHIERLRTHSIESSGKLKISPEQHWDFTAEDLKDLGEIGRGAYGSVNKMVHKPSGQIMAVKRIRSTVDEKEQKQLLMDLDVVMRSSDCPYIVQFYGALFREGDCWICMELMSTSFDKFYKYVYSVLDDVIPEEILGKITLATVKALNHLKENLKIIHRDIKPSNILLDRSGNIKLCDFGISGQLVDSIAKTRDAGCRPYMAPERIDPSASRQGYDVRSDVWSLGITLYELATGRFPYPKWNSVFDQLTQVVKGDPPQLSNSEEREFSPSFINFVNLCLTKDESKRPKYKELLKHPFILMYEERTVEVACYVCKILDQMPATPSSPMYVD"}, "TrkA (h)": {"molecular_target": "TrkA (h) (human (h), UniProt P04629 441-796, limits assumed)", "sequence (P04629 441-796 limits assumed)": "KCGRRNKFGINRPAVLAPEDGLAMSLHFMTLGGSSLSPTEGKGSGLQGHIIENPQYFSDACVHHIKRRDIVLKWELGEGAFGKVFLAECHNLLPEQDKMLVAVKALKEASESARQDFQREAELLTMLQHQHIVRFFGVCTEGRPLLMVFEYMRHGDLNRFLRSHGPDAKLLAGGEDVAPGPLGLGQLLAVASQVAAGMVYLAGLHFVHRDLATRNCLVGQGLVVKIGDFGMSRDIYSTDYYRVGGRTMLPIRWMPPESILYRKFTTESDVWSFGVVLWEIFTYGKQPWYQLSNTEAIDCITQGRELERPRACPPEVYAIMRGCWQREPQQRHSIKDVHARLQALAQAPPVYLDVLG"}, "PKA (h) [2]": {"molecular_target": "T1, PKA (h)", "remark": "listed apart in the source"}, "KDR (tl)": {"molecular_target": "KDR (tl) (UniProt P35968 790-1356, limits assumed)"}, "MSK2 (h)": {"molecular_target": "MSK2 (h) (human (h), UniProt O75676 1-772, limits assumed)", "sequence (O75676 whole entry)": "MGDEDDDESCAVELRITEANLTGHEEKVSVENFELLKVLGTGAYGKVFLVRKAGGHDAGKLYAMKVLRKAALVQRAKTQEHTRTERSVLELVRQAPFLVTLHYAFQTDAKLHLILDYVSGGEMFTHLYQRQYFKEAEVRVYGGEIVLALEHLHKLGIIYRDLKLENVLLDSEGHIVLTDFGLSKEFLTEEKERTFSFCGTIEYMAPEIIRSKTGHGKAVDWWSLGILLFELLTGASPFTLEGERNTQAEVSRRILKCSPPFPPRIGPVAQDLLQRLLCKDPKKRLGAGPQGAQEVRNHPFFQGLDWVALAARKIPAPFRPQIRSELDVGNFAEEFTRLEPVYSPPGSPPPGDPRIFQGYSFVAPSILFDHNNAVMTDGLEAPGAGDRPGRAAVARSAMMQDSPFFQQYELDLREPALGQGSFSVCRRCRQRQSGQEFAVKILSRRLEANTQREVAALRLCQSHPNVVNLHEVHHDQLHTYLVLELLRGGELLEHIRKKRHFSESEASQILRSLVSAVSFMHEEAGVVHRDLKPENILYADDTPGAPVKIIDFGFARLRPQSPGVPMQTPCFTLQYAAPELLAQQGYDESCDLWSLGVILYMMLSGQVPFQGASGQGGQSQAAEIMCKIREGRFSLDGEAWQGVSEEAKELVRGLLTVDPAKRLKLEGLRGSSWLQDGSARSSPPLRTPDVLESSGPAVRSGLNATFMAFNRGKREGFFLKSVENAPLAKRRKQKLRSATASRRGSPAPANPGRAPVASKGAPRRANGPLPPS"}, "FGFR1 (h)": {"molecular_target": "FGFR1 (h) (human (h), UniProt P11362 456-765, limits assumed)", "sequence (P11362 456-765 limits assumed)": "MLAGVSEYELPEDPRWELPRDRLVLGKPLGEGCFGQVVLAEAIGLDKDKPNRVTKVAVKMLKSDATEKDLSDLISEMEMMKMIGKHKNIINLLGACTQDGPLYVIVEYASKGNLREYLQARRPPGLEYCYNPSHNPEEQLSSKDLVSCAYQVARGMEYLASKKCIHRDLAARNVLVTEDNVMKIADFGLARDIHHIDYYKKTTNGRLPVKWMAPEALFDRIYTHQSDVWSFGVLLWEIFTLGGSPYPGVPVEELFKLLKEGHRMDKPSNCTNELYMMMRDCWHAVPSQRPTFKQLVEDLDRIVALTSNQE"}, "MAPKI (h)": {"molecular_target": "MAPKI (h) (human (h), UniProt P28482 1-360, limits assumed)", "sequence (P28482 whole entry)": "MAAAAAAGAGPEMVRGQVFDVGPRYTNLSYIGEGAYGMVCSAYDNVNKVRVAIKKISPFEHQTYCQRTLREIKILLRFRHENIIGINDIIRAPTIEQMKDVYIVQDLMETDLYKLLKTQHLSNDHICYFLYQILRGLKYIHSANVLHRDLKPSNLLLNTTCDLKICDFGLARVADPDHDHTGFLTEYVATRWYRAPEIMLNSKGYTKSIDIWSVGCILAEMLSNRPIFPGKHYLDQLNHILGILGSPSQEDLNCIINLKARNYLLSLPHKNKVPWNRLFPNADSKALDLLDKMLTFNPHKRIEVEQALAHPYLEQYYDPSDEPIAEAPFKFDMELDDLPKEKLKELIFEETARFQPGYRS"}, "MEKI (h)": {"molecular_target": "MEKI (h) (human (h), UniProt Q02750 1-393)"}, "Tie2 (h)": {"molecular_target": "Tie2 (h) (human (h), UniProt Q02763 771-1124, limits assumed)", "sequence (Q02763 771-1124 limits assumed)": "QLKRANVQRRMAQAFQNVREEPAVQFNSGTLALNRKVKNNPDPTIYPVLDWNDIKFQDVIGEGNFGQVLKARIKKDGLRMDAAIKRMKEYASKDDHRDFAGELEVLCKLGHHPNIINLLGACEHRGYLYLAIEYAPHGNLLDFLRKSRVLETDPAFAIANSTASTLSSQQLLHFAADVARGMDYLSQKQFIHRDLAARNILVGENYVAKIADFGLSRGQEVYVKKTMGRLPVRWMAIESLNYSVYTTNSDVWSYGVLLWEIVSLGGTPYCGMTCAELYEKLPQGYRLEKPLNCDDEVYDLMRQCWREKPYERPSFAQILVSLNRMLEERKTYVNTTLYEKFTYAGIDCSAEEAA"}, "MSK1 (h)": {"molecular_target": "MSK1 (h) (human (h), UniProt O75582 1-802)", "sequence (O75582 whole entry)": "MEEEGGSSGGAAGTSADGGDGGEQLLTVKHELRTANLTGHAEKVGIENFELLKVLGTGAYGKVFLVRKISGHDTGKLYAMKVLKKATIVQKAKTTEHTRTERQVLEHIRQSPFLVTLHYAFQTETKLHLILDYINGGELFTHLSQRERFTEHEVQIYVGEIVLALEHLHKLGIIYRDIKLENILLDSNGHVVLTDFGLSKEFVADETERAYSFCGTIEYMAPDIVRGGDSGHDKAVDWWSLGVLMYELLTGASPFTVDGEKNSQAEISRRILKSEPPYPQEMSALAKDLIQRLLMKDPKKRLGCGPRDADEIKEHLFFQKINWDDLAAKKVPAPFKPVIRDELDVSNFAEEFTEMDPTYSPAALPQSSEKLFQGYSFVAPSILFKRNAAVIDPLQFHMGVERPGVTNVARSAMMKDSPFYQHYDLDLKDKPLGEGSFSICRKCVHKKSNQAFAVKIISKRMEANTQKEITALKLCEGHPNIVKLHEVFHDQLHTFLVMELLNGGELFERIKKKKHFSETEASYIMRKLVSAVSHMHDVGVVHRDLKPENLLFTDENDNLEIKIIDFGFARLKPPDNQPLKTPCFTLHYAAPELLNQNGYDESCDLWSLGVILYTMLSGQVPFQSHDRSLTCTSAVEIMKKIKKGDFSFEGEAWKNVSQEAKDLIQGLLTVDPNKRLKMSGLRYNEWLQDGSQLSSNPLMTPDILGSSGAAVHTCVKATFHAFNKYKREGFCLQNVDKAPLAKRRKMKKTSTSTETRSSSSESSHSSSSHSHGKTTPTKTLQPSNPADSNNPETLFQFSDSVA"}, "ASK1 (h)": {"molecular_target": "ASK1 (h) (human (h), UniProt Q99683 649-946, limits assumed)"}, "Met (h)": {"molecular_target": "Met (h) (human (h), UniProt P08581 974-1390, limits assumed)"}}}
{"binder": "WLRRIKAWLRRIKALNRQLGVAA", "values": [{"measurement": "Profile-1 @ = 30 µm (kinase profiler assay)", "setting": "PKA (h) [1]", "value": 80}, {"measurement": "Profile-1 @ = 30 µm (kinase profiler assay)", "setting": "Syk (h)", "value": 19}, {"measurement": "Profile-1 @ = 30 µm (kinase profiler assay)", "setting": "Aurora-A (h)", "value": 46}, {"measurement": "Profile-1 @ = 30 µm (kinase profiler assay)", "setting": "MLCK (h)", "value": 4}, {"measurement": "Profile-1 @ = 30 µm (kinase profiler assay)", "setting": "CKIB (h)", "value": 52}, {"measurement": "Profile-1 @ = 30 µm (kinase profiler assay)", "setting": "Src(1-530) (h)", "value": 6}, {"measurement": "Profile-1 @ = 30 µm (kinase profiler assay)", "setting": "ROCK-1 (h)", "value": 0}, {"measurement": "Profile-1 @ = 30 µm (kinase profiler assay)", "setting": "SAPK2 a (h)", "value": 61}, {"measurement": "Profile-1 @ = 30 µm (kinase profiler assay)", "setting": "PDGFRβ (h)", "value": 42}]}
{"binder": "KAFAKLAARLYRKALARQLGVAA", "values": [{"measurement": "Profile-1 @ = 100 µm (kinase profiler assay)", "setting": "L1MK1 (h)", "value": 93}, {"measurement": "Profile-1 @ = 100 µm (kinase profiler assay)", "setting": "PKG1β (h)", "value": 24}, {"measurement": "Profile-1 @ = 100 µm (kinase profiler assay)", "setting": "MKK4 (m)", "value": 114}, {"measurement": "Profile-1 @ = 100 µm (kinase profiler assay)", "setting": "TrkA (h)", "value": 16}, {"measurement": "Profile-1 @ = 100 µm (kinase profiler assay)", "setting": "PKA (h) [2]", "value": 103}, {"measurement": "Profile-1 @ = 100 µm (kinase profiler assay)", "setting": "KDR (tl)", "value": 56}, {"measurement": "Profile-1 @ = 100 µm (kinase profiler assay)", "setting": "MSK2 (h)", "value": 30}, {"measurement": "Profile-1 @ = 100 µm (kinase profiler assay)", "setting": "FGFR1 (h)", "value": 35}, {"measurement": "Profile-1 @ = 100 µm (kinase profiler assay)", "setting": "MAPKI (h)", "value": 108}, {"measurement": "Profile-1 @ = 100 µm (kinase profiler assay)", "setting": "MEKI (h)", "value": 66}, {"measurement": "Profile-1 @ = 100 µm (kinase profiler assay)", "setting": "Tie2 (h)", "value": 8}, {"measurement": "Profile-1 @ = 100 µm (kinase profiler assay)", "setting": "MSK1 (h)", "value": 13}, {"measurement": "Profile-1 @ = 100 µm (kinase profiler assay)", "setting": "ASK1 (h)", "value": 48}, {"measurement": "Profile-1 @ = 100 µm (kinase profiler assay)", "setting": "Met (h)", "value": 22}]}
